# B1: CLK4-associating serine/arginine rich protein (Homo sapiens), Q8N2M8 (parent)
# chain: MWHEARKHERKLRGMMVDYKKRAERRREYYEKIKKDPAQFLQVHGRACKVHLDSAVALAAESPVNMMPWQGDTNNMIDRFDVRAHLDHIPDYTPPLLTTISPEQESDERKCNYERYRGLVQNDFAGISEEQCLYQIYIDELYGGLQRPSEDEKKKLAEKKASIGYTYEDSTVAEVEKAAEKPEEEESAAEEESNSDEDEVIPDIDVEVDVDELNQEQVADLNKQATTYGMADGDFVRMLRKDKEEAEAIKHAKALEEEKAMYSGRRSRRQRREFREKRLRGRKISPPSYARRDSPTYDPYKRSPSESSSESRSRSRSPTPGREEKITFITSFGGSDEEAAAAAAAAAASGVTTGKPPAPPQPGGPAPGRNASARRRSSSSSSSSSASRTSSSRSSSRSSSRSRRGGGYYRSGRHARSRSRSWSRSRSRSRRYSRSRSRGRRHSGGGSRDGHRYSRSPARRGGYGPRRRSRSRSHSGDRYRRGGRGLRHHSSSRSRSSWSLSPSRSRSLTRSRSHSPSPSQSRSRSRSRSQSPSPSPAREKLTRPAASPAVGEKLKKTEPAAGKETGAAKPKLTPQEKLKLRMQKALNRQFKADKKAAQEKMIQQEHERQEREDELRAMARKIRMKERERREKEREEWERQYSRQSRSPSPRYSREYSSSRRRSRSRSRSPHYRH
# partner: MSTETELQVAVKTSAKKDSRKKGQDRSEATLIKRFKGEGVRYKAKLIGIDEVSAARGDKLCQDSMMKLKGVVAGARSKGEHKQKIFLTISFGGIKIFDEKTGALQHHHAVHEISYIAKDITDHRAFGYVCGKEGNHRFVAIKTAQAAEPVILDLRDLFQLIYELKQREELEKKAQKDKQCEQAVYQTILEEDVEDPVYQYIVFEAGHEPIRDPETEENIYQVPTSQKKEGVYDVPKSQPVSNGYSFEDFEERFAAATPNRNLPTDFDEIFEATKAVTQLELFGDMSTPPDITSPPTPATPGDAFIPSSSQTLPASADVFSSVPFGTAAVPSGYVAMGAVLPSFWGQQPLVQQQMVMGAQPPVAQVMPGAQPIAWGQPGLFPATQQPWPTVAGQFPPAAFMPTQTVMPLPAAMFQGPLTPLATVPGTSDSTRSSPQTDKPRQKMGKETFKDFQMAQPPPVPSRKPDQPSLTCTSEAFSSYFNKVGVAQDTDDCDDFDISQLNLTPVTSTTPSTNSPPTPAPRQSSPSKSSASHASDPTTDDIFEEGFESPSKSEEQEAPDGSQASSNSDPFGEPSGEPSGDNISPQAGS
# B2: Vacuolar protein-sorting-associated protein 25 (Homo sapiens), Q9BRG1 (parent)
# chain: MAMSFEWPWQYRFPPFFTLQPNVDTRQKQLAAWCSLVLSFCRLHKQSSMTVMEAQESPLFNNVKLQRKLPVESIQIVLEELRKKGNLEWLDKSKSSFLIMWRRPEEWGKLIYQWVSRSGQNNSVFTLYELTNGEDTEDEEFHGLDEATLLRALQALQQEHKAEIITVSDGRGVKFF
# partner: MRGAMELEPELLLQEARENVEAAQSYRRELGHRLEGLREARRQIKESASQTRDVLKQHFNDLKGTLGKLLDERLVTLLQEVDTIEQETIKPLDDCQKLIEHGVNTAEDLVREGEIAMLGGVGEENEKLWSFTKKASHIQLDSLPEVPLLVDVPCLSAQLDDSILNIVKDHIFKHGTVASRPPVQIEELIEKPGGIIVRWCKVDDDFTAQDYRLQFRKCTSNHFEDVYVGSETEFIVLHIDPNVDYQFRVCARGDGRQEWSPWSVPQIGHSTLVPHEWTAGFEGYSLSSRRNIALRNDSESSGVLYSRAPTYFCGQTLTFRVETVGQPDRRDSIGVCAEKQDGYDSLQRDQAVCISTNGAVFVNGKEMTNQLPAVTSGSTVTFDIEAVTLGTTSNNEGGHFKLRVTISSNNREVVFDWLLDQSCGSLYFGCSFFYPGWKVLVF
# B3: Liprin-alpha-1 (Homo sapiens), Q13136 (parent)
# chain: MMCEVMPTISEAEGPPGGGGGHGSGSPSQPDADSHFEQLMVSMLEERDRLLDTLRETQETLALTQGKLHEVGHERDSLQRQLNTALPQEFAALTKELNVCREQLLEREEEIAELKAERNNTRLLLEHLECLVSRHERSLRMTVVKRQAQSPAGVSSEVEVLKALKSLFEHHKALDEKVRERLRVALERCSLLEEELGATHKELMILKEQNNQKKTLTDGVLDINHEQENTPSTSGKRSSDGSLSHEEDLAKVIELQEIISKQSREQSQMKERLASLSSHVTELEEDLDTARKDLIKSEEMNTKLQRDVREAMAQKEDMEERITTLEKRYLAAQREATSVHDLNDKLENEIANKDSMHRQTEDKNRQLQERLELAEQKLQQTLRKAETLPEVEAELAQRVAALSKAEERHGNIEERLRQMEAQLEEKNQELQRARQREKMNEEHNKRLSDTVDKLLSESNERLQLHLKERMAALEDKNSLLREVESAKKQLEETQHDKDQLVLNIEALRAELDHMRLRGASLHHGRPHLGSVPDFRFPMADGHTDSYSTSAVLRRPQKGRLAALRDEPSKVQTLNEQDWERAQQASVLANVAQAFESDADVSDGEDDRDTLLSSVDLLSPSGQADAHTLAMMLQEQLDAINKEIRLIQEEKENTEQRAEEIESRVGSGSLDNLGRFRSMSSIPPYPASSLASSSPPGSGRSTPRRIPHSPAREVDRLGVMTLLPPSREEVRDDKTTIKCETSPPSSPRALRLDRLHKGALHTVSHEDIRDIRNSTGSQDGPVSNPSSSNSSQDSLHKAPKKKGIKSSIGRLFGKKEKGRPGQTGKEALGQAGVSETDNSSQDALGLSKLGGQAEKNRKLQKKHELLEEARRQGLPFAQWDGPTVVVWLELWVGMPAWYVAACRANVKSGAIMSALSDTEIQREIGISNPLHRLKLRLAIQEIMSLTSPSAPPTSRTTLAYGDMNHEWIGNEWLPSLGLPQYRSYFMECLVDARMLDHLTKKDLRGQLKMVDSFHRNSFQCGIMCLRRLNYDRKELERKREESQSEIKDVLVWSNDRVIRWILSIGLKEYANNLIESGVHGALLALDETFDFSALALLLQIPTQNTQARAVLEREFNNLLVMGTDRRFDEDDDKSFRRAPSWRKKFRPKDIRGLAAGSAETLPANFRVTSSMSSPSMQPKKMQMDGNVSGTQRLDSATVRTYSC
# partner: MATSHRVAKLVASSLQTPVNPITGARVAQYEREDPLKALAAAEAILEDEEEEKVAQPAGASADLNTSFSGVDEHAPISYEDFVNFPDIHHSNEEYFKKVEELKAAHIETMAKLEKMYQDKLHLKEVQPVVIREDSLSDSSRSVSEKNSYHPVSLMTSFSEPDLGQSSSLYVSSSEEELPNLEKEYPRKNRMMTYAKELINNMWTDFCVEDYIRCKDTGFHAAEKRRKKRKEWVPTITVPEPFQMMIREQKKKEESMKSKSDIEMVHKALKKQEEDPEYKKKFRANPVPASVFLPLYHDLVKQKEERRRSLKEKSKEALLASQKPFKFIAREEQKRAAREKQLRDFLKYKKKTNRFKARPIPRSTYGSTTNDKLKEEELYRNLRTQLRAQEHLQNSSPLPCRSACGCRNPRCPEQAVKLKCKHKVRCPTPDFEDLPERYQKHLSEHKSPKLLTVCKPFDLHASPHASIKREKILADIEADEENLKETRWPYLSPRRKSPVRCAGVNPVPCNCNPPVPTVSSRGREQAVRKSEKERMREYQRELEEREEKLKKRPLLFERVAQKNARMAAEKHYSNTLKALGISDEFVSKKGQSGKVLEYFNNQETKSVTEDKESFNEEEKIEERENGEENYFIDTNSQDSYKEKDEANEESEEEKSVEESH
# B4: Protein VAC14 homolog (Homo sapiens), Q08AM6 (parent)
# chain: MNPEKDFAPLTPNIVRALNDKLYEKRKVAALEIEKLVREFVAQNNTVQIKHVIQTLSQEFALSQHPHSRKGGLIGLAACSIALGKDSGLYLKELIEPVLTCFNDADSRLRYYACEALYNIVKVARGAVLPHFNVLFDGLSKLAADPDPNVKSGSELLDRLLKDIVTESNKFDLVSFIPLLRERIYSNNQYARQFIISWILVLESVPDINLLDYLPEILDGLFQILGDNGKEIRKMCEVVLGEFLKEIKKNPSSVKFAEMANILVIHCQTTDDLIQLTAMCWMREFIQLAGRVMLPYSSGILTAVLPCLAYDDRKKSIKEVANVCNQSLMKLVTPEDDELDELRPGQRQAEPTPDDALPKQEGTASGGPDGSCDSSFSSGISVFTAASTERAPVTLHLDGIVQVLNCHLSDTAIGMMTRIAVLKWLYHLYIKTPRKMFRHTDSLFPILLQTLSDESDEVILKDLEVLAEIASSPAGQTDDPGPLDGPDLQASHSELQVPTPGRAGLLNTSGTKGLECSPSTPTMNSYFYKFMINLLKRFSSERKLLEVRGPFIIRQLCLLLNAENIFHSMADILLREEDLKFASTMVHALNTILLTSTELFQLRNQLKDLKTLESQNLFCCLYRSWCHNPVTTVSLCFLTQNYRHAYDLIQKFGDLEVTVDFLAEVDKLVQLIECPIFTYLRLQLLDVKNNPYLIKALYGLLMLLPQSSAFQLLSHRLQCVPNPELLQTEDSLKAAPKSQKADSPSIDYAELLQHFEKVQNKHLEVRHQRSGRGDHLDRRVVL
# partner: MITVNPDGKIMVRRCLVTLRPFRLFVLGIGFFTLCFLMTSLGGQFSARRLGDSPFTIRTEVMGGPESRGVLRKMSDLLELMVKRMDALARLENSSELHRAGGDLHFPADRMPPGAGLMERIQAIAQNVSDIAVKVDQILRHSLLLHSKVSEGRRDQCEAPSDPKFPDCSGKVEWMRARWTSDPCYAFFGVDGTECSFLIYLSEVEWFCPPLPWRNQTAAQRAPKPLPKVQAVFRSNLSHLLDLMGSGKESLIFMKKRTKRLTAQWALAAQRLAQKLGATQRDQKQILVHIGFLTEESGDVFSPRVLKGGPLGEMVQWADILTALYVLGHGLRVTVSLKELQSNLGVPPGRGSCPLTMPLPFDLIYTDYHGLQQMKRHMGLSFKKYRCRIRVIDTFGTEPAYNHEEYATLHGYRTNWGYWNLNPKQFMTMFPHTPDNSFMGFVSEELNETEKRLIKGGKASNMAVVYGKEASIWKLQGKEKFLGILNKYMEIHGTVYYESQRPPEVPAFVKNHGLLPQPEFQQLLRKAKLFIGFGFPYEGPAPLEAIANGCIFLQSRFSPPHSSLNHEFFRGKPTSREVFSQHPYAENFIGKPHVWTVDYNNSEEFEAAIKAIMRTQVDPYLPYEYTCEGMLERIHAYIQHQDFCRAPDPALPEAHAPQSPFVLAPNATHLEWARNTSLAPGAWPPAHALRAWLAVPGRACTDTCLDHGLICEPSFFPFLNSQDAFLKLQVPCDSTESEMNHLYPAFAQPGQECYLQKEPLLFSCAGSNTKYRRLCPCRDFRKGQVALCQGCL
# B5: Coiled-coil domain-containing protein 120 (Homo sapiens), Q96HB5-4 (parent)
# chain: MRREPRYQGQVGPDIHTDSERTLSSHQPRPLDSTKMEVKGQLISSPTFNAPAALFGEAAPQVKSERLRGLLDRQRTLQEALSLKLQELRKVCLQEAELTGQLPPECPLEPGERPQLVRRRPPTARAYPPPHPNQAHHSLCPAEELALEALEREVSVQQQIAAAARRLALAPDLSTEQRRRRRQVQADALRRLHELEEQLRDVRARLGLPVLPLPQPLPLSTGSVITTQGVCLGMRLAQLSQEDVVLHSESSSLSESGASHDNEEPHGCFSLAERPSPPKAWDQLRAVSGGSPERRTPWKPPPSDLYGDLKSRRNSVASPTSPTRSLPRSASSFEGRSVPATPVLTRGAGPQLCKPEGLHSRQWSGSQDSQMGFPRADPASDRASLFVARTRRSNSSEALLVDRAAGGGAGSPPAPLAPSASGPPVCKSSEVLYERPQPTPAFSSRTAGPPDPPRAARPSSAAPASRGAPRLPPVCGDFLLDYSLDRGLPRSGGGTGWGELPPAAEVPGPLSRRDGLLTMLPGPPPVYAADSNSPLLRTKDPHTRATRTKPCGLPPEAAEGPEVHPNPLLWMPPPTRIPSAGERSGHKNLALEGLRDWYIRNSGLAAGPQRRPVLPSVGPPHPPFLHARCYEVGQALYGAPSQAPLPHSRSFTAPPVSGRYYADFLYPPELSARLSDLTLEGEQSSSSDTQTPGTLV
# partner: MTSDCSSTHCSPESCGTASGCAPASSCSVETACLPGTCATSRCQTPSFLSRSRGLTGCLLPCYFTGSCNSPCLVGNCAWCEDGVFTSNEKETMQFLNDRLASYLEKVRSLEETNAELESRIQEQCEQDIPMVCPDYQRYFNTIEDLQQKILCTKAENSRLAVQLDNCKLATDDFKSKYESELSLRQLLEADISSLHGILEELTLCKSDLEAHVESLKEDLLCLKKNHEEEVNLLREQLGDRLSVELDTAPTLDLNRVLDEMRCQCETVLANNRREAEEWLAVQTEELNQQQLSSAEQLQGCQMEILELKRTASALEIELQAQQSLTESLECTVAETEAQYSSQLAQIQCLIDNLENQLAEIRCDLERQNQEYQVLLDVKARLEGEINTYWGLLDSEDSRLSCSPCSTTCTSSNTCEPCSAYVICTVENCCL
# Variants of: B1
# Conditions: with dab1_human DAB1, O75553
row,Variant,effect of a mutation on the interaction
1,I163V,with no effect

# Variants of: B2
# Conditions: with crlf3_human CRLF3, Q8IUI8
row,Variant,effect of a mutation on the interaction
1,P58Q,with no effect

# Variants of: B3
# Conditions: with FAM161A
row,Variant,effect of a mutation on the interaction
1,L330F,disrupting interaction strength

# Variants of: B3
# Conditions: with FAM161A
# Remark: another data set of the same source
row,Variant,effect of a mutation on the interaction
1,P389L,with no effect

# Variants of: B4
# Conditions: with mgt5b_human MGAT5B
row,Variant,effect of a mutation on the interaction
1,A127S,with no effect

# Variants of: B5
# Conditions: with KRT40, Q6A162
row,Variant,effect of a mutation on the interaction
1,R346W,with no effect

# Reference: IntAct's records for PubMed 29892012
